We go through two molecules from patent US20260028418A1 (GC CELL, published 2026).

For assay [1], the target named is T1, HER2-ECD-Fc (human, UniProt P04626 23-652).
T1 construct: extracellular domain; Produced in FreeStyle 293F cells; also called HER2-ECD Fc fusion protein
In words: ELISA on HER2-ECD-Fc; antibody at 5 µg/mL. For orientation: An ELISA detects its analyte on a solid surface through an enzyme-linked reagent.

The target of assay [2] is T1, HER2-ECD-Fc. Nature of the assay: ELISA on HER2-ECD-Fc; antibody at 50 µg/mL.
For assay [3], the target named is T1, HER2-ECD-Fc. In words: ELISA on HER2-ECD-Fc; antibody at 5 × 10^-1 µg/mL.
The target in assay [4] is T1, HER2-ECD-Fc. Nature of the assay: ELISA on HER2-ECD-Fc; antibody at 5 × 10^-2 µg/mL.
In assay [5] the target is T1, HER2-ECD-Fc. Nature of the assay: ELISA on HER2-ECD-Fc; antibody at 5 × 10^-3 µg/mL.
Assay [6] has as its target T1, HER2-ECD-Fc. Nature of the assay: ELISA on HER2-ECD-Fc; antibody at 5 × 10^-4 µg/mL.
The target of assay [7] is T1, HER2-ECD-Fc. Nature of the assay: ELISA on HER2-ECD-Fc; antibody at 5 × 10^-5 µg/mL.
The target of assay [8] is T1, HER2-ECD-Fc. In words: ELISA on HER2-ECD-Fc; antibody at 5 × 10^-6 µg/mL.
In assay [9] the target is T1, HER2-ECD-Fc. In words: ELISA on HER2-ECD-Fc; antibody at 5 × 10^-7 µg/mL.
Another assay has as its target T2, EGFR-ECD-Fc (human, UniProt P00533 25-645).
T2 construct: extracellular domain; also called extracellular domain of EGFR; not shown: Hinge and Fc region (CH2-CH3) of human IgG1; The protein was produced in the same manner as HER2-ECD-Fc
In words: ELISA on ErbB family extracellular domains, Absorbance at 450 nm; antibody concentration not given. From the text:
(§1) It was investigated whether the developed five antibodies of the present disclosure specifically bind to HER2 belonging to the ErbB family proteins by ELISA.

For assay [10], the target named is T3, HER3 (R&D Systems, #348-RB-050) (human, UniProt P21860 20-643).
T3 construct: extracellular domain; Bought
The description is as above.
Excerpt: as §1

Assay [11] deals with T4, HER4 (R&D Systems, #1131-ER-050) (human, UniProt Q15303 26-651).
T4 construct: extracellular domain; Bought
T4 sequence (looked up): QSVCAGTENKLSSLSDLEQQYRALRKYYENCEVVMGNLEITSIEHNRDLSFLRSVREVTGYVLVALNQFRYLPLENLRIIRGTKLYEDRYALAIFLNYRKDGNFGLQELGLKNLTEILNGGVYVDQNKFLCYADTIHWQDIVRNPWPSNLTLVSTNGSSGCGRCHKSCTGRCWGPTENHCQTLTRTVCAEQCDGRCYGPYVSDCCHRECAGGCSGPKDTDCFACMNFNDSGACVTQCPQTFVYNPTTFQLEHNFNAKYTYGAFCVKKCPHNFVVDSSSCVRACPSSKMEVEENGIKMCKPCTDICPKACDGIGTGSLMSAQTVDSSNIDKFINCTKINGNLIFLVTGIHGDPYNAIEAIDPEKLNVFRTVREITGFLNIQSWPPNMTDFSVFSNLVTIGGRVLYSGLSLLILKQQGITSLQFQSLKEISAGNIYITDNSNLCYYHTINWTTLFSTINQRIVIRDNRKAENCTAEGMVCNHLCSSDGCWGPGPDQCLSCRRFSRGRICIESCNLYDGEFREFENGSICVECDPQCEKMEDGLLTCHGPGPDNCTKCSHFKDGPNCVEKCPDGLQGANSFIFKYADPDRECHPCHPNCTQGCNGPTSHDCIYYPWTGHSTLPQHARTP
The assay is described as above.
Excerpt: as §1

For a further assay, the target named is T5, HER2-ECD DI Fc (human, UniProt P04626 23-217, limits assumed).
T5 construct: domain: domain 1; also called domain 1 of the extracellular domains of the HER2 protein; not shown: Hinge and Fc region (CH2-CH3) of human IgG1, at the C-terminus
In words: ELISA on plate-coated HER2 domain-Fc fusion (1 µg/mL), anti-human IgG-HRP, Abs 450 nm; antibody concentration not given. On the procedure:
(§2) The HER2-ECD DI Fc, HER2-ECD DII Fc, HER2-ECD DIII Fc, HER2-ECD DIV Fc and HER2-ECD Fc fusion proteins were immobilized at 4° C. overnight onto a Costar 96-well plate (Corning, Cat. No. 3590) at a concentration of 1 μg/mL […]. The resultant was washed 3 times with TBS-T (0.05% Triton X-100) and then blocked at room temperature for 1 hour with 100 μL of TBS-T/BSA (5% BSA). After washing the blocked plate 3 times and adding the anti-HER2 antibody, the antibody was allowed to bind at room temperature for 1 hour. After washing 3 times and then adding anti-human IgG-HRP diluted to 1:3,000 in TBS-T/BSA, as a secondary antibody, the antibody was allowed to bind at room temperature for 1 hour. After washing the resultant 3 times and adding TMB (SurModics, Cat. No. TMBC-1000-01), the mixture was allowed to develop color at room temperature for 5 minutes. Then, the color development was stopped by adding 1 N sulfuric acid (DukSan, Cat. No. 254). Absorbance was measured at 450 nm using Victor X3 (PerkinElmer, Cat. No. 2030-0030).

A further assay concerns the target T6, HER2-ECD DIII Fc (human, UniProt P04626 342-510, limits assumed).
T6 construct: domain: domain 3; also called domain 3 of the extracellular domains of the HER2 protein; not shown: Hinge and Fc region (CH2-CH3) of human IgG1, at the C-terminus
Described as above. On the procedure: as §2

B1: 1G3 (antibody, V domains shown)
VH: EVQLQQSGAELVKPGASVKLSCTASDFNIVDTYMHWVKQRPEQGLEWIGRIDPANGYTRYDPNFQGKATITADTSSNTAYLQLSSLTSEDTAVYYCARYYYGFYAMDYWGQGTTVTVSS
VL: DIVMTQSHKFMSTSVGDRVSITCKASQDVSTAVAWYQQKPGQSPKLLIYSASYRYTGVPDRFTGSGSGTDFTFTISSVQAEDLAVYYCQQHYSTPPTFGGGTKLELK
With B1, the absorbance with HER2-ECD-Fc [1] came out at 2.81; with HER2-ECD-Fc [2], 2.76; with HER2-ECD-Fc [3], 2.78; with HER2-ECD-Fc [4] it was 2.79; with HER2-ECD-Fc [5], 1.77; with HER2-ECD-Fc [6], 0.35. Also, the absorbance amounted to 0.14 with HER2-ECD-Fc [7], 0.11 with HER2-ECD-Fc [8] and 0.11 with HER2-ECD-Fc [9]. Further, the binding result (in the assay with EGFR-ECD-Fc; in assay [10]; in assay [11]; with HER2-ECD DI Fc; with HER2-ECD DIII Fc) was “no binding” each time.

B2: hz8G11 (antibody, V domains shown)
VH: QVQLVQSGQEVKKPGASVKVSCKASGYSFTGYYMHWVRQAPGQGLEWIGHINPNNGGTSYNQKFKGRTTLTVDKSISTAYMELSRLRSDDTAVYYCAREEAFAYWGQGTLVTVSS
VL: DIQMTQSPSSLSASVGDRVTISCRASQDISNYLNWYQQKPGKAPKLLIYYTSRLHSGVPSRFSGSGSGTDFSLTISSLQPEDIATYYCQQGITPPWTFGGGTKVEIK
notes: Humanized antibody, detected with anti-human IgG-HRP; also called humanized 8G11 antibody
On to B2, for which the absorbance in the assay with HER2-ECD-Fc [1] was 2.9; with HER2-ECD-Fc [2], 2.74; in the assay with HER2-ECD-Fc [3], 2.94; with HER2-ECD-Fc [4] it was 2.72; in the assay with HER2-ECD-Fc [5] it was 1.67; with HER2-ECD-Fc [6] it was 0.34. The figures for the absorbance with HER2-ECD-Fc [7], with HER2-ECD-Fc [8] and in the assay with HER2-ECD-Fc [9] were 0.14, 0.12 and 0.12, respectively. In addition, the binding result (with EGFR-ECD-Fc; in [10]; in assay [11]; with HER2-ECD DI Fc; in the assay with HER2-ECD DIII Fc) was “no binding” throughout.
